Data published in IntAct's records for PubMed 17805295.

Target: Cdh23, Q99PF4-1
Sequence (Q99PF4 whole entry): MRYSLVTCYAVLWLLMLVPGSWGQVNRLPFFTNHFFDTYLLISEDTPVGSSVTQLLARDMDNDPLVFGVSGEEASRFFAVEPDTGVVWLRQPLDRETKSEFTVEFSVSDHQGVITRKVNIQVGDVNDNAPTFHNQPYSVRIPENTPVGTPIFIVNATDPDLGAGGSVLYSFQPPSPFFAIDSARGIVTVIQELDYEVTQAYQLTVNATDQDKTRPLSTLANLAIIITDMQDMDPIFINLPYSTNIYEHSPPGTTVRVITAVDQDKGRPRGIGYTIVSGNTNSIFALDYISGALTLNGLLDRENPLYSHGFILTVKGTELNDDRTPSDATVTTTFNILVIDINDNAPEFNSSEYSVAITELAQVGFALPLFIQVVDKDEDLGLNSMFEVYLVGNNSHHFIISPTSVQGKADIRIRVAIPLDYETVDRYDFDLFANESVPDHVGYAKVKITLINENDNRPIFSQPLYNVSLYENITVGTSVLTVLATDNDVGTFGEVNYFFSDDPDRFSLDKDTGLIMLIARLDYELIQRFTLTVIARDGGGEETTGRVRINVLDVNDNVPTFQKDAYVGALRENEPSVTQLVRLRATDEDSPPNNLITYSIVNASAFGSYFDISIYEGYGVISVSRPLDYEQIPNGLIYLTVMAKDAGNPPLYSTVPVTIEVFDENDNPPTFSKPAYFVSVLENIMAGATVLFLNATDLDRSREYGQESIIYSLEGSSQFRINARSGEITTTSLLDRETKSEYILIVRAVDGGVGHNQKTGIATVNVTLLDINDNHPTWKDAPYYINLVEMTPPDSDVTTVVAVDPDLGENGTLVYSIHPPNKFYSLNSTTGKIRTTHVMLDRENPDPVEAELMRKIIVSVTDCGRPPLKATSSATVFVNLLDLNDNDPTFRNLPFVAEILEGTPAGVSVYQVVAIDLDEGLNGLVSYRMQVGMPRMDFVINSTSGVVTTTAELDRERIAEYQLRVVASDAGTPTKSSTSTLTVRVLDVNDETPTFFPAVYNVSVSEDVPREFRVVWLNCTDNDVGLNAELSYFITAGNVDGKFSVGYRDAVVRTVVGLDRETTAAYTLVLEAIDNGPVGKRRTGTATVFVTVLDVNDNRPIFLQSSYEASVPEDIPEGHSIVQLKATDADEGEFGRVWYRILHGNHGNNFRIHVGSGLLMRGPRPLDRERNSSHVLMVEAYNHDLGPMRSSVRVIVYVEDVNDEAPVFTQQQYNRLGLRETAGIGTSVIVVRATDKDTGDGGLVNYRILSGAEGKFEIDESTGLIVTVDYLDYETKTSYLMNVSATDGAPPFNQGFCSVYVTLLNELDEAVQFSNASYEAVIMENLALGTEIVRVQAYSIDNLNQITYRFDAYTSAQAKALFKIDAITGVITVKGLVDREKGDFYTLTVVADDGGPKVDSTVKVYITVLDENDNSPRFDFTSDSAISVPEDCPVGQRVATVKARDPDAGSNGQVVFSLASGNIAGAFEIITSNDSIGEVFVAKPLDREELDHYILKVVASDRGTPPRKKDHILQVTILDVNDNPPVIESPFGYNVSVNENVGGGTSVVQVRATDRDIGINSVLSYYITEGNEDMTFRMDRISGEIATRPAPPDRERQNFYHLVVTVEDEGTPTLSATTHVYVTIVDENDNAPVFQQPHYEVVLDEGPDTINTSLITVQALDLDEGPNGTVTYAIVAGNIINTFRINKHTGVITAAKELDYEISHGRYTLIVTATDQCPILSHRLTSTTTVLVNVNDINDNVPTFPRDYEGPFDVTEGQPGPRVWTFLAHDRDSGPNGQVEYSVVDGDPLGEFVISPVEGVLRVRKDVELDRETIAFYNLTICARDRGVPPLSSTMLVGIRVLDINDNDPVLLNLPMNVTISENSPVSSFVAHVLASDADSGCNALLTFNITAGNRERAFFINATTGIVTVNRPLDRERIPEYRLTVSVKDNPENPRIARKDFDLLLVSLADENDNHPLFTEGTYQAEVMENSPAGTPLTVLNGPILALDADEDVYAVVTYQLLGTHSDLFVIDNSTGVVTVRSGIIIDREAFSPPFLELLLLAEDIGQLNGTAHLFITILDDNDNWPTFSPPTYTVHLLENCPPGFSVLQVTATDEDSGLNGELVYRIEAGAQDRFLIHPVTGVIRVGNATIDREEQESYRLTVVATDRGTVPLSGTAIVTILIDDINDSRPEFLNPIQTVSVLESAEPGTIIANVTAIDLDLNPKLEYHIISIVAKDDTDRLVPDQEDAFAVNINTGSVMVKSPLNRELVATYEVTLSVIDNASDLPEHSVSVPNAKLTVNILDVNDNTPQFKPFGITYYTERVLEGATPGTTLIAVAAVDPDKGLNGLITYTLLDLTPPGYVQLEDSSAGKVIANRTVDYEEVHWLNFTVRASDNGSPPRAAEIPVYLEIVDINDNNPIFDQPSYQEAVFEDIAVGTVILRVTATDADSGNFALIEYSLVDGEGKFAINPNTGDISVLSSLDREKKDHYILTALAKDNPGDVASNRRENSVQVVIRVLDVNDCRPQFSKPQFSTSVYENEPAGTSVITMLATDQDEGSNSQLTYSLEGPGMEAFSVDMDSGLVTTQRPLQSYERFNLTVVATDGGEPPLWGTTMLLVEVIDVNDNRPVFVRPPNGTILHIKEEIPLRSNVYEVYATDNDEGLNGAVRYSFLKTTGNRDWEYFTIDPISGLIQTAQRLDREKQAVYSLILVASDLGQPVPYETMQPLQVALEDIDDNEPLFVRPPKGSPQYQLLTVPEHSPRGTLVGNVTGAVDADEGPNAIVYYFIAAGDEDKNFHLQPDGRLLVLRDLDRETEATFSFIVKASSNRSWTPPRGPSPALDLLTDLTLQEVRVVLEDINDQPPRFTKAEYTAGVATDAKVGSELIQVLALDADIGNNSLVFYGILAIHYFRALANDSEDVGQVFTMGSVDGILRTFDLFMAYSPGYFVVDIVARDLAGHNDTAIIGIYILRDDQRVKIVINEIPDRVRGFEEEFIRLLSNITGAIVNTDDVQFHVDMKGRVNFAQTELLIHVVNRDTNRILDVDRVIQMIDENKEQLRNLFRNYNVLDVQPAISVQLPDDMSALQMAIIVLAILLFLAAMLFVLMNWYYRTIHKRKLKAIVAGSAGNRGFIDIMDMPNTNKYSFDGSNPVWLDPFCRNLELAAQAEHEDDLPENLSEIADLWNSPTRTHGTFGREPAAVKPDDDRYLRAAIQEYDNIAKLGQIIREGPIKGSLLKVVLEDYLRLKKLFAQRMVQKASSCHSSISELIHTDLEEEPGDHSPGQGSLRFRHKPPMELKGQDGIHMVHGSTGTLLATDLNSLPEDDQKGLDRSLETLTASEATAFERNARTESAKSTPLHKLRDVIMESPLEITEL

effect of a mutation on the interaction: disrupting interaction strength
Substance: Protocadherin-15 (Mus musculus), Q99PJ1 R139G
